Measurements reported in patent US6245545.

Test system: SwaI restriction endonuclease (native) (Staphylococcus warneri)
Test: cleavage_in_vitro
Details: more than 544,000 units in Source-15S fractions 17-19; restriction activity assayed on M13mp19 RF DNA

M13mp19 RF DNA
activity: 544000 units
